Measured values published in the nanobody polyreactivity screen of Harvey et al. (2022).

Assay: yeast display, Sf9 membrane polyspecificity reagent, FACS + sequencing; frameworks hold sequencing errors
Summary of the method: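 In a synthetic yeast display library (Saccharomyces cerevisiae BJ5465), nanobody expression was induced with galactose for 36–48 hours. FACS gates were set low and high (top ~1%) using anti-HA fluorescence for expression and streptavidin fluorescence for binding of the Sf9 membrane reagent. Each polyreactivity label is drawn from the gate of origin.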

| Sequence | polyreactivity (PSR sort gate) |
| --- | --- |
| QVQLEESGGGLVQAGGSLRLSCAASGFTFNKYAMGWYRQAPGKERELVDAISSSGGSTRYADSVKGRFKISRDNAKNTVYLQMNSLKPEDSAVYYCAVYVTRDSGWWLYDYWGQGTQVTVAS | high polyreactivity |
| QVQLEESGGGLVQAGGSLRLSCAASGFTFRYYAMGWYRQAPGKERELVASISSSGGSTNYADSVKGRFTISRDNAKNTVYLQMNSLKPEDTAVYYCAVPPYTWLYDYWGQGTQVTVSS | high polyreactivity |
| QVQLEESGGGLVQAGGSLRLSCAASGFTFSYYAMGWYRQATGKERELVAAITSSAGSTYYADSVKGRFTISRDYAKNSFYLQMTSLKPEDTEVYYCYAVYSKLNGGYDYWGQGTQVTVSS | low polyreactivity |
| QVQLEESGGGLVQAGGSLRLSCAASGFTFVYYAMGRYRQATGKERELVAAISWRDGDTYYADSVKGRFTISRDNAKNTVYVQMNSLKPEDTAVYYCAADYSYFKDDDWGQGTQVTVSS | low polyreactivity |
| QVQLEESGGGLVQAGGSLRLSCAASGFTFWLYAMGWYRQAPGKEREFVAAISTSGGSTYADSVKGRFTISRDNAKNTVYLQMNSLKPEDTAVYYCNAGYLLYYDYHLFYWGQGTQVTVSS | low polyreactivity |
| QVQLEESGGGLVQAGGSLRLSCAASGFTFYIYALGWYRQAPGKERELVAAISSSGTRTYYADSVKGRFTISRDNAKNTVYLQMNSLKPEDTAVYYCAATRYSWHNRVSRRHRYDYWGQGTQVTVSS | high polyreactivity |
| QVQLEESGGGLVQAGGSLRLSCAASGFTIRLYARGWYRQAPGKVRELVAAITSGGSTYADSVKGRFTISRDNAKNTVYLQMNSLKPEDTAVNYCAAVSRYWAKYEYWGQGTQVTVSS | high polyreactivity |
| QVQLEESGGGLVQAGGSLRLSCAASGFTSYYAMGWYRQAPGKERELVAAIRYSTVSTYYADAVKGRFTISRDNAKNTVYLQMNIMKPEDTAVYYCAAQRRPYLPGHYYYWGQGTQVTVSS | high polyreactivity |
| QVQLEESGGGLVQAGGSLRLSCAASGGILVFYALGWYRQAPGTERELVAAINVSGRSTYYADSVKGRFTISRDNAKNTVYVQMNSLKPEDTAVYYCAADYYYVWYDYWGQGTQVTVSS | low polyreactivity |
| QVQLEESGGGLVQAGGSLRLSCAASGIIFKLYAMGWYRQAPGKERELVAAITYRGGTTYYADSVKGRFTISRDNAKNTDYLQMNSLKPEDTAVYYCAVAVTSYSSKKLYYWGQGTQVTVSS | low polyreactivity |
| QVQLEESGGGLVQAGGSLRLSCAASGINLTGYTMGWYRKATGKERQLVAAITYGGTSTYYADSVKGRFTISRDNAKNTVYLQMNSLKPEDTAVYYCAALYRGPRYGYWGQGTQVTVSS | high polyreactivity |
| QVQLEESGGGLVQAGGSLRLSCAASGISFDTYAMGRNRPAPGKERELVAAMSSSGSTNYADSVKGRFTISRDNAKKTVYLQMNSLKPEDTADYYCATDYWPGTGGTYDYWGQGTQVTVSS | low polyreactivity |
| QVQLEESGGGLVQAGGSLRLSCAASGITFEYYAMVWYRQAPGKERELVAANDTGGSTNYADSVKGRFTISRDNAKNTVYFLMNSLKPEDTEVYYCAADWSWWDGEDYHFEYDYWGQGTQVTVSS | low polyreactivity |
| QVQLEESGGGLVQAGGSLRLSCAASGITFLNYAMGWYRQAPGKERELVAAISWSGGRTYYADSVKGRFTISRDNAKNTVYLQMNSLKPEDTAVYYCAVRGSWYSEHNYWGQGTQVTVSS | high polyreactivity |
| QVQLEESGGGLVQAGGSLRLSCAASGITFYYYAMGWYRRAPGKERELVAANSSGGSKSYADSVKGRFTISRDNAKNNVYLQMNSLKPDDSAVYYCAADLPYLWYPFYYWGQGTQVTVSS | high polyreactivity |
| QVQLEESGGGLVQAGGSLRLSCAASGLIFIQYAMVWNRQAPGKERELVAAISGSGVTTYYADSVNGSFTISRDKAMNTVYLQMTSLKPEDTAVYYCNAALRWKYDWGQGTQVTVSS | low polyreactivity |
| QVQLEESGGGLVQAGGSLRLSCAASGLIFVHYTMGWYRQAPGKERELVAAISRSGGSTSYADSVKGRFTISRDTAKNSVYLQMNSLKPEDTAVYYCAAVGSRSGLTPYEYWGQGTQVTVSS | high polyreactivity |
| QVQLEESGGGLVQAGGSLRLSCAASGLILRWNAMGWYRQAPGKERELVATINRGGSTNYADSVKGRFTISRDNAKNTVYLQMNSLKPEDTAVYYCYKARTSQYHHTYWRTYGYWGPGTQVTVSS | low polyreactivity |
| QVQLEESGGGLVQAGGSLRLSCAASGLTFTPNAMGWYRPAPGKEWELVAAITNGGSTNYADSVKGCFTISRDNAKNTVYLQMNSLKPEDTAVYYCAAECSYWFRRYGYWGQGTQVTVSS | high polyreactivity |
| QVQLEESGGGLVQAGGSLRLSCAASGLTFYSYAMGWYRQAPGKERELVAGINYSGDSTHYADSVKGRFTISRDNAKNTVYLQMNSLKPEDTAVYYCASQTFVYRKELLSRYEYWGQGTQVTVSS | high polyreactivity |
| QVQLEESGGGLVQAGGSLRLSCAASGNIFRDYAMGWYRQAPGKERELVAAISWSGGSTYYADSVKGRFTISRDNAKNTVYLQMNSLKPEDTAVYYCAARKPYSYNYWGQGTQVTVSS | high polyreactivity |
| QVQLEESGGGLVQAGGSLRLSCAASGRIFATNAMGWYRQAPGKERELVATITRSAGRTYYADSVKGRFTISRDNAKNTVYLHMNSLKPEDTAVYYCASSYWDTEPVYREYDYWGQGTQVTVSS | low polyreactivity |

| Sequence | polyreactivity (PSR sort gate) |
| --- | --- |
| QVQLEESGGGLVQAGGSLRLSCAASGRIFAYYAMGWYRQAPGKERELVAAIRGSGGSTYYADSVKGRFTISRDNAKNTVYLQMNSLKPEDTAVYYCAARTQPKKFYYWGQGTQVTVSS | high polyreactivity |
| QVQLEESGGGLVQAGGSLRLSCAASGRIFFKYSMGWYRQAPGKERELVATISSSTGSTYYADSVKGRFTISRDNAKNTDYLQMNSLKPEDTAVYYCNARVRTQQRWVDYWGQGTQVTVSS | high polyreactivity |
| QVQLEESGGGLVQAGGSLRLSCAASGRIFIAYTMGWYRQAPGKERELVAAITWNGGSTYYADSVKGRFTISRDNAMNTVYLQMNSLKPEDTAVYYWVLVSRPGPKPAREMDYWGQGTQVTVSS | low polyreactivity |
| QVQLEESGGGLVQAGGSLRLSCAASGRIFLWYAMGWYRQAPGKERELVAAISSNGGSTRYADSVKGRFTISRDNAKNTVYLQMNSLKPEDTALYYCNADVHWNRYPYGGNGYGYWGQGTQVTVSS | low polyreactivity |
| QVQLEESGGGLVQAGGSLRLSCAASGRIFLYKIMGSYREAPGQERDLVAAISWGTGSTYADSVKGRFTISRDNAINTVYLQIYRLKPEDTAVYYCDADSFMPPYYHWGQGTQVTVSS | low polyreactivity |
| QVQLEESGGGLVQAGGSLRLSCAASGRIFRYYTMGGYRQAPGKERELVDAISGSGGSTYYADSVKGRFTISRDNAKNTVYLQMNSLKPEDTSVYYCAAAHRYWGQGTQVTVSS | high polyreactivity |
| QVQLEESGGGLVQAGGSLRLSCAASGRIFSGYAMGWYRQAPGIERELVAAIDSVGDTYYADSVKVRFTISRDNAKNTVYLQMNSLKPEDTAVYYCAAERTVRMVLSPTDEMDYWGQGTQVNVSS | low polyreactivity |
| QVQLEESGGGLVQAGGSLRLSCAASGRIFTWYTMGWYRQAPGKEREFVAAITRSGTSTYYADSVKGRFTISRDNAKNTVYLQMNSLKPEDTAVYYCAAGKPRSKYWYDYWGQGTQVTVSS | high polyreactivity |
| QVQLEESGGGLVQAGGSLRLSCAASGRIFWYYDMGWYRQAPGKERELVAAISQRGGSTYYADSVKGRFTISRDNAKNTVYLQMNSLKAEDTAVYYCAKRNPYWATREYWGQGTQVTVSS | high polyreactivity |
| QVQLEESGGGLVQAGGSLRLSCAASGRIFYTYVMGWYRQAPEKERELVAAITGGGSKYYAYSVKGRFTISRDNAKNTVYLQMNSLKPEDTAVSYCAKRSYGDRDERYDSWGQGTQVTVSS | low polyreactivity |
| QVQLEESGGGLVQAGGSLRLSCAASGRILVKNTMGWYRQAPGKERELVAAITSGGNTYYADSVKGRFTISRDNAKNTVYLQMNSLKPEDTAVYYCNKVSNRSGYYWGQGTQVTVSS | high polyreactivity |
| QVQLEESGGGLVQAGGSLRLSCAASGRTFDRYAMGWYRQAPGKERELVAAITWSGGRTYYADSVKGRFTISRVNAKNTVYLQMNSLKPEDTAVYYCAADNSYRGYHSPYDYWGQGTQVTVSS | low polyreactivity |
| QVQLEESGGGLVQAGGSLRLSCAASGRTFGWNGMGWYRQAPGKERELVAVISSGGSTKYADSVKGRFTISRDNAKNTVYLQMNSLKPEDTALYYCAKDWVRSGRRNMDYWGQGTQVTFSS | low polyreactivity |
| QVQLEESGGGLVQAGGSLRLSCAASGRTFNRYVMGWYRQAPGKERELVAAITWRGGSTYYADSVKGRFTISRDNAKTSVYLQMNSLKPEDTAVYYCAARYSGGYSVDAFDYWGQGTQVTVSS | high polyreactivity |
| QVQLEESGGGLVQAGGSLRLSCAASGRTFSRNAMGWYIQAPGKERELVAAISQRGVSTYYADSVKGRFTISRDNAMNTVYLQMNSLKPEDTAVYYCNTRGTYRYDYWGQGTQVTVSS | low polyreactivity |
| QVQLEESGGGLVQAGGSLRLSCAASGRTFVLNVMGWYRQAPGKERELVATISGVGSTNYADSVKGRFTISRDNAKNTVYLQMNSLKPEDTAVYYCAKDPHVGRWWDLYSPYYSWGQGTQVTVSS | low polyreactivity |
| QVQLEESGGGLVQAGGSLRLSCAASGRTFVPYAMGWYRQAPGKERELVAAINSGGSTYYADSVKGRFTISRDNAKNTVYLQMNSLKPEDTAVYYCAAEYWNSRFSYAYGYWGQGTQVTVSS | high polyreactivity |
| QVQLEESGGGLVQAGGSLRLSCAASGRTFVRYAMGWYRQATGNERELVAAFSLRGGRTYYADSVKGRFTISRDNAKNTVYLQMNSLKPEDTAVYYCNSRYYIQREYDYWGQGNQVTVSS | high polyreactivity |
| QVQLEESGGGLVQAGGSLRLSCAASGRTFYPYAMGWYRQAPGKEREFVARITWSGGRTYYADSVKGRFTISRDNAKNTVYLQMNSLKPEDTAVYYCAARGHDAVIATRYDYWGQGTQVTVSS | high polyreactivity |
| QVQLEESGGGLVQAGGSLRLSCAASGRTIQDNAMGWYRQAHGKERELVAAIRDNGGSTYYADSVKGRFTISRDNAKNTVFLQMNSLKPEDTAVYYCAADQGTGSYDYWGQGTQVTVSS | low polyreactivity |
| QVQLEESGGGLVQAGGSLRLSCAASGRTSYSNAMGSYRQAPGQERELVAGITYRGGSTYYADSVKGRFTISRDNAKNTVYLQMNSLKPEDTAVYDCAVKYSWQSRFNYWGQGTQVTVSS | high polyreactivity |
